Assay results reported in the supplement of paper PMC9876800.

Tested on: peptide library, one residue held at a place counted from the S/T acceptor
Test: relative phosphorylation of the sub-library (ratio to the mean residue at this position); human; higher = residue favoured
How it was run: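 Purified recombinant kinases (human or orthologue constructs) were incubated in 384-well plates with biotinylated degenerate peptide sub-libraries, each fixing one residue at one position around a central Ser/Thr. Peptides were at 50 μM, with 50 μM ATP spiked with γ-32P-ATP, for 90 min under kinase-specific conditions. Spots on streptavidin membranes were phosphorimaged and quantified by densitometry. Relative sub-library phosphorylation is a ratio to the mean residue at that position.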

Chain of MAP4K5, construct: Full length (Q9Y4K4 whole entry, looked up): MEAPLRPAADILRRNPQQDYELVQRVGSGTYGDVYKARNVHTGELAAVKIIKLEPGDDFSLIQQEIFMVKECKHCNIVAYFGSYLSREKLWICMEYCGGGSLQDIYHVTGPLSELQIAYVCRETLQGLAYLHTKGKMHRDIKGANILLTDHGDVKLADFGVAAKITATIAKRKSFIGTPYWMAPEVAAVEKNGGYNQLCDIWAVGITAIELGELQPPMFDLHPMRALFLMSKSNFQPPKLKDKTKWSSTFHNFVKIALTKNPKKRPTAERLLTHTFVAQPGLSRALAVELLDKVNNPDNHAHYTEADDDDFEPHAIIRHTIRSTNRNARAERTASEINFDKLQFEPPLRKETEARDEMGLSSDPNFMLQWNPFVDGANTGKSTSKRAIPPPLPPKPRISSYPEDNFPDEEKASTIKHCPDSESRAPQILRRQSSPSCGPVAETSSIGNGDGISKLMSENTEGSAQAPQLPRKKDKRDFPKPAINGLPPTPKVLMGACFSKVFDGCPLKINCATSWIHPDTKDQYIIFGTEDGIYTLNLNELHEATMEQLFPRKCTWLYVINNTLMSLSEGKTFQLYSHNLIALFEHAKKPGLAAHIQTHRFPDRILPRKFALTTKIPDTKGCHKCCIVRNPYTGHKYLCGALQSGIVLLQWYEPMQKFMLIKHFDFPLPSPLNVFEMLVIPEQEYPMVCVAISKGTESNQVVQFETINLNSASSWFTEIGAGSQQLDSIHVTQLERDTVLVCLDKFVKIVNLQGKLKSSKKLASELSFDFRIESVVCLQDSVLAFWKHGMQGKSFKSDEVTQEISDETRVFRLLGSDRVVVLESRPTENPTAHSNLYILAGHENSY
Chain of MAP4K3, construct: aa1-380 (Q8IVH8 1-380, looked up): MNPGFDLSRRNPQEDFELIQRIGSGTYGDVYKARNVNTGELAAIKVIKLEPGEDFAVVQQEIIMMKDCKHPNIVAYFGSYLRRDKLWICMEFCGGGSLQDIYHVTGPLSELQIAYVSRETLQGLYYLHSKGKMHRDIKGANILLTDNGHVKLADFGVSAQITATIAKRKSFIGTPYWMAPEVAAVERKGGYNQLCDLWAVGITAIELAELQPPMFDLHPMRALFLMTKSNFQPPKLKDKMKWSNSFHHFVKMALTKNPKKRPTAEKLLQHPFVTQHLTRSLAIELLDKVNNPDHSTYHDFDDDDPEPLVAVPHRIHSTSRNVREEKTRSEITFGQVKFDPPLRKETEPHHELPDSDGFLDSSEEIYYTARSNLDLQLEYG

MAP4K3, construct: aa1-380 (from UniProt Q8IVH8)
relative phosphorylation
Settings	at +1	at +2	at +3	at +4	at -1	at -2	at -3	at -4	at -5
A fixed	0.464	0.792	0.671	0.932	0.978	1.09	0.815	0.964	1.07
D fixed	0.179	0.667	0.375	0.655	0.611	0.522	0.553	0.851	0.835
E fixed	0.151	0.643	0.296	0.592	0.437	0.406	0.569	0.894	0.687
F fixed	1.09	0.464	0.536	0.71	0.692	1.16	0.778	0.991	0.922
G fixed	0.613	0.996	0.846	1.12	1.93	1.43	1.51	1.39	1.32
H fixed	0.606	1.12	1.04	1.07	1.21	1.34	1.13	1.04	1.07
I fixed	1.8	0.357	0.432	0.733	0.279	0.676	0.556	0.696	0.772
K fixed	0.642	2.68	2.32	1.93	1.66	0.987	2.27	1.34	1.49
L fixed	3.72	0.602	0.549	0.722	0.859	0.655	0.602	0.748	0.637
M fixed	2.73	0.664	0.51	0.9	1.05	0.687	0.651	0.869	0.862
N fixed	0.632	1.11	0.868	1.05	1.54	1.16	1.07	0.867	1.01
P fixed	0.418	1.16	0.942	1.11	0.741	0.854	1.08	1.13	1.11
Q fixed	0.655	0.952	0.952	1.17	0.998	0.785	0.843	0.928	0.864
R fixed	0.67	3.22	4.5	1.67	1.92	1.5	2.13	1.48	1.45
V fixed	0.672	0.428	0.497	0.743	0.362	0.815	0.529	0.695	0.833
W fixed	1.14	0.528	0.893	0.999	0.668	1.3	0.935	1.16	1.07
Y fixed	0.821	0.615	0.772	0.885	1.06	1.63	0.978	0.968	1.01
pThr fixed	0.928	0.749	0.717	0.614	0.437	0.985	1.11	1.13	1.32
pTyr fixed	0.355	0.389	0.637	0.486	0.516	0.763	1.04	0.852	1.16

MAP4K5, construct: Full length (from UniProt Q9Y4K4)
relative phosphorylation
Settings	at +1	at +2	at +3	at +4	at -1	at -2	at -3	at -4	at -5
A fixed	0.585	0.999	0.641	0.969	0.963	1.36	0.963	1.03	1.3
D fixed	0.17	0.718	0.375	0.726	0.63	0.491	0.59	0.756	0.739
E fixed	0.173	0.581	0.319	0.67	0.455	0.368	0.553	0.812	0.721
F fixed	1.1	0.535	0.704	0.783	0.704	1.07	0.744	0.995	0.974
G fixed	0.585	1.04	0.891	1.21	1.79	1.43	1.37	1.33	1.42
H fixed	0.605	1.13	1.23	1.14	1.3	1.41	1.21	1.09	1.02
I fixed	1.89	0.373	0.468	0.709	0.294	0.645	0.528	0.684	0.66
K fixed	0.599	2.46	1.81	1.8	1.43	0.905	2.01	1.25	1.3
L fixed	3.52	0.673	0.672	0.796	0.816	0.636	0.628	0.76	0.607
M fixed	2.8	0.797	0.688	0.88	1	0.773	0.697	0.853	0.819
N fixed	0.506	1.02	0.973	1.04	1.43	1.18	1.13	0.933	0.943
P fixed	0.32	1.13	1.14	1.12	1.2	1.07	0.999	1.24	1.37
Q fixed	0.558	1.12	0.907	1.1	1.01	0.806	1.1	0.96	0.877
R fixed	0.697	2.53	3.55	1.49	1.65	1.36	1.77	1.25	1.25
V fixed	0.78	0.513	0.609	0.718	0.362	0.77	0.591	0.78	0.906
W fixed	1.28	0.647	1.08	0.951	0.778	1.3	1.13	1.23	1.07
Y fixed	0.832	0.738	0.94	0.9	1.19	1.43	0.989	1.05	1.02
pThr fixed	0.61	0.623	0.7	0.522	0.433	0.776	0.874	0.936	1.02
pTyr fixed	0.326	0.397	0.716	0.56	0.602	0.695	0.91	0.881	1.1
